The target of assay [1] is T1, extracellular binding domain of human SIRPγ (plate-coated) (human, UniProt Q9P1W8 29-360).
T1 construct: also called hSIRPγ
Description: ELISA, coated SIRP ECD (2 µg/mL), anti-human IgG, luminescence. Here is the method:
(§1) Selected hybridoma supernatants of Example 1 were tested for binding to human SIRPγ, cynomolgus monkey SIRPγ, human SIRPα V1, cynomolgus monkey SIRPα, human SIRPβ1, and cynomolgus monkey SIRPβ1 by enzyme-linked immunosorbent assay (ELISA). Briefly, 2 μg/mL of the extracellular domain of SIRP protein was coated onto high protein-binding plates and blocked. Undiluted supernatants were added to coated plates. The antibodies were detected by an anti-rat antibody and a chemiluminescent substrate. […] The data depict the relative luminescence units read by a plate-reader capable of detecting chemiluminescence.
(§2) FIGS. 2A-2G show binding curves of SIRPγ antibodies and human Fc isotype controls to human SIRPγ, cynomolgus monkey SIRPγ, human SIRPα V1, human SIRPα V2, and human SIRPβ1 by ELISA. […] Isotype control 2 was an unrelated human IgG1 antibody with irrelevant CDRs with no modifications in the Fc region. DNA was transiently transfected into Expi293F cells for 5 days. Antibodies were purified by Protein A from cell supernatants and analyzed in a titration via ELISA as previously described in FIG. 1 using an anti-human IgG antibody as the detection antibody.

Assay [2] addresses T2, Cynomolgus Monkey SIRPγ (plate-coated extracellular domain).
T2 construct: also called Cyno SIRPγ
T2 extracellular domain: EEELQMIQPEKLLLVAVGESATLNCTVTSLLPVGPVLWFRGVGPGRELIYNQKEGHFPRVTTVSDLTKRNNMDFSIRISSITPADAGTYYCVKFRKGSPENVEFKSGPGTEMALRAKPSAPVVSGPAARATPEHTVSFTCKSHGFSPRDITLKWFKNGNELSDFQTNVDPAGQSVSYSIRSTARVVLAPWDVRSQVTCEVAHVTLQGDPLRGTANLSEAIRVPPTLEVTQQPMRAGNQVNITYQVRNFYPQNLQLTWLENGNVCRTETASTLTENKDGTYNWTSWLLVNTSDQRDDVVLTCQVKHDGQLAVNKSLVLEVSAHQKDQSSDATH
The assay is described as above. The procedure: as §1, §2

For assay [3], the target named is T3, human SIRPβ1 on CHO cells (co-transfected with DAP12) (human, UniProt O00241 30-398).
T3 construct: whole, on cells; co-transfected with DAP12; also called Human SIRPβ1 CHO
T3 sequence (O00241 30-398): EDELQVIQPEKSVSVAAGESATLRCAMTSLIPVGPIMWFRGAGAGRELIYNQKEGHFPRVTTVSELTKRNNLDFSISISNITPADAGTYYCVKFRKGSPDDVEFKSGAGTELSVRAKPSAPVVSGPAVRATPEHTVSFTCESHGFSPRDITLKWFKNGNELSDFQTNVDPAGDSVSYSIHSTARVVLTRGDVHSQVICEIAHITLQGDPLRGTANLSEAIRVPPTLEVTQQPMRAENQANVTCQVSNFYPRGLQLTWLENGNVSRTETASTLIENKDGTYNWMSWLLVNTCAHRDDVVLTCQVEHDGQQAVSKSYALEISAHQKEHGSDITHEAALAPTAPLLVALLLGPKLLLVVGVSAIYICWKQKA
In words: flow cytometry, CHO transfectants, anti-human IgG. The procedure:
(§3) Selected antibodies were tested for binding to stably transfected human SIRPγ, SIRPαV1, or SIRPβ1 (co-transfected with DAP12) Chinese hamster ovary (CHO) cells via flow cytometry. A titration of select antibodies was added to the cells and detected using a fluorescently labelled secondary anti-rat IgG antibody or anti-human IgG antibody. Graphs depict the median fluorescence intensity (MFI) at each concentration. FIGS. 5A and 5G show the binding curves of select antibodies to human SIRPγ, cynomolgus monkey SIRPγ, human SIRPα, cynomolgus monkey SIRPα, human SIRPβ1, or cynomolgus monkey SIRPβl-expressing CHO cells detected using an anti-rat IgG antibody. FIGS. 5B-5F and 5H-5L show the binding curves of select antibodies to human SIRPγ, cynomolgus monkey SIRPγ, human SIRPα, cynomolgus monkey SIRPα, human SIRPβ1, or cynomolgus monkey SIRPβ1-expressing CHO cells detected using an anti-human IgG antibody. […] For select antibodies, each myc-tagged SIRPγ scFv antibody as crude PPE was incubated with each of the SIRP-expressing cell lines stated above along with the parental CHO-K1 cell line. […] Fold change value <2.0 is considered a non-binder.
A general note: Flow cytometry measures light scatter and fluorescence of single cells or particles in a stream.

Assay [4] concerns the target T4, cynomolgus monkey SIRPα on CHO cells (cynomolgus monkey, UniProt A0A2K5VYQ9 31-507).
T4 construct: whole, on cells; also called Cyno SIRPα CHO
T4 sequence: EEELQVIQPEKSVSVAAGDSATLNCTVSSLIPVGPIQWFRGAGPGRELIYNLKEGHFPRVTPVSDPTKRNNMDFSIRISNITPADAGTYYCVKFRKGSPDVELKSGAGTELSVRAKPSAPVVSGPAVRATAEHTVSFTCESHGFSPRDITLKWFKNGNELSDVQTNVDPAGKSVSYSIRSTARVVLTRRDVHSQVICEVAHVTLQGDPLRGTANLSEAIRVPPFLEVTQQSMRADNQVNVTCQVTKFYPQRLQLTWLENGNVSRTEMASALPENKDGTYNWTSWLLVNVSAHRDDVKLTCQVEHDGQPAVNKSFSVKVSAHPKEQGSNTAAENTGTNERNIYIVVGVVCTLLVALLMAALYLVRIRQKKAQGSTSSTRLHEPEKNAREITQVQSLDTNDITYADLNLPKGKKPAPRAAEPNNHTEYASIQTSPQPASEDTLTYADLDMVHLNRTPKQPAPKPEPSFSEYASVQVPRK
Description: flow cytometry, CHO transfectants, anti-human IgG. Here is the method: as §3

In assay [5] the target is T5, cynomolgus monkey SIRPγ-His monomer protein (cynomolgus monkey, UniProt Q9P1W8 29-359 (human entry), limits assumed).
T5 construct: also called Cyno SIRPγ; Cyno SIRPγ-His
T5 chain: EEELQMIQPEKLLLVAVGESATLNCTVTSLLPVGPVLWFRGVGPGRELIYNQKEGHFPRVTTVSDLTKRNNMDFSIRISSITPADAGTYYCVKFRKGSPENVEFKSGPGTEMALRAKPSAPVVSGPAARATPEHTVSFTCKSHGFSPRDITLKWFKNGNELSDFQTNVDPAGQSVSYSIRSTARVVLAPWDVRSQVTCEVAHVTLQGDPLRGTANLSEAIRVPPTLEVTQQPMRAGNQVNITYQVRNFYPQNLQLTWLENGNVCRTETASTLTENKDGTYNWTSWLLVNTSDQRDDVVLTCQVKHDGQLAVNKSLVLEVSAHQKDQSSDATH
In words: BLI Octet, captured scFv PPE, cyno SIRP. Here is the method: Unique binders were further tested for binding to human SIRPαV1, human SIRPαV2, and human SIRPβ1. Briefly, biotinylated anti-V5 was immobilized onto streptavidin biosensors. Each V5-tagged SIRPγ scFv antibody as crude PPE was captured by the anti-V5 antibody. SIRP-His monomer protein at 500 nM was exposed to the biosensor for binding to SIRP scFv. The biosensors were then exposed to wash buffer to measure off-rate kinetics. The resulting association and dissociation kinetics (kdis) was analyzed. […] Similarly, cross-reactivity to cynomolgus monkey SIRPγ, cynomolgus monkey SIRPα, and cynomolgus monkey SIRPβ1 were tested.
(In general: Biolayer interferometry detects binding as a change in optical thickness at a sensor tip.)

In assay [6] the target is T6, human SIRPγ on stably transfected CHO cells (human, UniProt Q9P1W8 29-387).
T6 construct: also called Human SIRPγ CHO
T6 sequence (Q9P1W8 29-387 limits assumed): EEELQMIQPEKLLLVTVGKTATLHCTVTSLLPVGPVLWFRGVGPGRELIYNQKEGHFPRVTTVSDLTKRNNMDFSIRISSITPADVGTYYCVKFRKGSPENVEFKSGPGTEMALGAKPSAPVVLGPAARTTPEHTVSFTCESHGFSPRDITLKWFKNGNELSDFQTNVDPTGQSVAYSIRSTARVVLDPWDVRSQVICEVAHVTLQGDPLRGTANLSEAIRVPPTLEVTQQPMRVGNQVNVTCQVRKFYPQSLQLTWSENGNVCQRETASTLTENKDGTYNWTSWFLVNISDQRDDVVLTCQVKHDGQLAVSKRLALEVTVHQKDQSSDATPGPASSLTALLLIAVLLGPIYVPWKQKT
In words: flow cytometry, myc-scFv PPE. The procedure:
as §3

Assay [7] addresses T7, cynomolgus monkey SIRPγ on CHO cells (cynomolgus monkey, UniProt Q9P1W8 29-386 (human entry)).
T7 construct: also called Cyno SIRPγ CHO
T7 chain: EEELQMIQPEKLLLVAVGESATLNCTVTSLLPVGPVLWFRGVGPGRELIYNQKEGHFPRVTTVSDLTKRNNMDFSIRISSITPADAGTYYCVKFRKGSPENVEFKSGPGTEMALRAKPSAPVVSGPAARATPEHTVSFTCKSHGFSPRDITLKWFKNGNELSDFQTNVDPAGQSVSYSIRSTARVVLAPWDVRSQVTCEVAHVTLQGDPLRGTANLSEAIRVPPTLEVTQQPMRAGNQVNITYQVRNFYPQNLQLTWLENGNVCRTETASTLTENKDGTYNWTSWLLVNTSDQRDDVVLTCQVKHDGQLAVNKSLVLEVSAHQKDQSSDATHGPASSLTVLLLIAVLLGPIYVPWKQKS
In words: flow cytometry, myc-scFv PPE. Here is the method: as §3

Assay [8] concerns the target T3, human SIRPβ1 on CHO cells …. Description: flow cytometry.
Assay [9] has as its target T8, human SIRPγ-His monomer protein (human, UniProt Q9P1W8 29-360).
T8 construct: also called hSIRPγ
Description: BLI Octet, V5-scFv PPE captured, SIRP-His 500 nM.

T1 sequence (Q9P1W8 29-360 limits assumed): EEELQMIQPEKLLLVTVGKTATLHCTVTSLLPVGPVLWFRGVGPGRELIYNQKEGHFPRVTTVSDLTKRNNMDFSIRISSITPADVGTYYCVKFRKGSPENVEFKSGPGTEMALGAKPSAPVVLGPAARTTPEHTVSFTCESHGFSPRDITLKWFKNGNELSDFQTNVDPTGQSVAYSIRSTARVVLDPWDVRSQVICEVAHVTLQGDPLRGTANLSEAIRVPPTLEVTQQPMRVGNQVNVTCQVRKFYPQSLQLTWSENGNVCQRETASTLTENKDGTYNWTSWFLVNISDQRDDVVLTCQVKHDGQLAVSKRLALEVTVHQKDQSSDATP
T8 sequence (Q9P1W8 29-360 limits assumed): as above

B1: Antibody 58 (antibody, V domains shown)
VH: QVQLVQSGAEVKKPGASVKVSCKASGYTFTAYYMHWVRQAPGQGLEWMGIINPSGGSTSYAQKFQGRVTMTRDTSTSTVYMELSSLRSEDTAVYYCARDSGWYAPGYYYGMDVWGQGTTVTVSS
VL: DIQMTQSPSSLSASVGDRVTITCRASESISHWLAWYQQKPGKAPKLLIYGASTLQSGVPSRFSGSGSGTDFTLTISSLQPEDFATYYCQQSYTPPLTFGGGTKVEIK
Regarding B1, the “EC50 (read off the curve)” value in [1] is about 0.09 µg/mL; in assay [2] it was about 0.1 µg/mL. Moreover, the binding result in [3] and in assay [4] was “no binding (tested: about 20 µg/mL)” throughout.

B2: Antibody 68 (antibody, V domains shown)
VH: QVQLVQSGAEVKKPGASVKVSCKASGYTFTSYYMYWVRQAPGQGLEWMGWINPNSGNTGYAQKFQGRVTMTRDTSTSTVYMELSSLRSEDTAVYYCAKDRRRGVGLAAAGTSAFDIWGQGTMVTVSS
VL: DIQMTQSPSSLSASVGDRVTITCRASQSISNWLAWYQQKPGKAPKLLIYAASSLQSGVPSRFSGSGSGTDFTLTISSLQPEDFATYYCQQSYSTPYTFGQGTKLEIK
In the case of B2, the 50% effective concentration (EC50 (read off the curve)) is about 0.5 µg/mL in assay [1] and about 1 µg/mL in [2]. Also, the binding result in assay [3] and in assay [4] was “no binding (tested: about 20 µg/mL)” in each case.

B3: Antibody 72 (antibody, V domains shown)
VH: QVQLVQSGAEVKKPGASVKVSCKASGYTFTDNYLHWVRQAPGQGLEWMGIIETSGGSTDYAQKFQGRVTMTRDTSTSTVYMELSSLRSEDTAVYYCARSFGGYSYDDAFDIWGQGTTVTVSS
VL: DIQMTQSPSSLSASVGDRVTITCQASQGISNYLNWYQQKPGKAPKLLIYAASSLQSGVPSRFSGSGSGTDFTLTISSLQPEDFATYYCQQSYSSPYTFGQGTKVEIK
B3: the concentration giving a half-maximal response (EC50 (read off the curve)) in [1] was about 0.2 µg/mL; in assay [2] it was about 0.3 µg/mL. The binding result in [3] and in [4] was “no binding (tested: about 20 µg/mL)” throughout.

B4: Antibody 46 (scFv, V domains shown)
VH: QVQLVQSGAEVKKPGASVKVSCKASGYTFSSYAISWVRQAPGQGLEWMGWMDPNSGNTGYAQKFQGRVTMTRDTSTSTVYMELSSLRSEDTAVYYCARESSYYYDSSGYYPGWYFDLWGRGTLVTVSS
VL: DIQMTQSPSSLSASVGDRVTITCQASQDISNYLNWYQQKPGKAPKLLIYAASTLQTGVPSRFSGSGSGTDFTLTISSLQPEDFATYYCQQSYSTPWTFGPGTKVDIK
notes: scFv in crude PPE, V5/myc-tagged
Turning to B4, the binding result is given as “binds” in assay [5] and “no binding (tested: fold change <2.0)” in assay [8]. In addition, the “MFI fold change over parental CHO” value in [6] was found to be 13.1 fold; in assay [7], 16 fold. In assay [9], this molecule gave a kdis of over 0.01 s⁻¹.

B5: Antibody 70 (antibody, V domains shown)
VH: QVQLVQSGAEVKKPGASVKVSCKASGYTFSNYYMHWVRQAPGQGLEWMGWMNPNSGNTGYAQKFQGRVTMTRDTSTSTVYMELSSLRSEDTAVYYCARASMYSSSGFDYWGQGTLVTVSS
VL: DIVMTQSPLSLPVTPGEPASISCRSSQSLLHSNGYNYLDWYLQKPGQSPQLLIYLASTRAPGVPDRFSGSGSGTDFTLKISRVEAEDVGVYYCMQGSHWPPSFGQGTRLEIK
As to B5, the “EC50 (read off the curve)” value in assay [1] is about 0.03 µg/mL; in [2], about 0.05 µg/mL. Moreover, the binding result in assay [3] and in assay [4] was “no binding (tested: about 20 µg/mL)” in each case.

B6: Antibody 59 (antibody, V domains shown)
VH: QVQLVQSGAEVKKPGASVKVSCKASGYTFTSYDINWVRQAPGQGLEWMGWMNPNSGNTGYAQKFQGRVTMTRDTSTSTVYMELSSLRSEDTAVYYCARESYAYCSSTSCYDAFDIWGQGTMVTVSS
VL: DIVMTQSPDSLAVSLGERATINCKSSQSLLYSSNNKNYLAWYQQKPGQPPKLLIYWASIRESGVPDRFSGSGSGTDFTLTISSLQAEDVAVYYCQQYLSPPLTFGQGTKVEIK
B6: the concentration giving a half-maximal response (EC50 (read off the curve)) in [1] was about 0.08 µg/mL; in [2] it was about 0.3 µg/mL. For the same molecule, the binding result in [3] and in [4] was “no binding (tested: about 20 µg/mL)” throughout.

B7: Antibody 63 (antibody, V domains shown)
VH: QVQLVQSGAEVKKPGASVKVSCKASGYTFTGYYMHWVRQAPGQGLEWMGIINPSGGSTNYAQKFQGRVTMTRDTSTSTVYMELSSLRSEDTAVYYCARGPIGYGMDVWGQGTLVTVSS
VL: DIQMTQSPSSLSASVGDRVTITCRASQGIGNDLGWYQQKPGKAPKLLIYAASNLETGVPSRFSGSGSGTDFTLTISSLQPEDFATYYCLQHHSYPFTFGQGTKLEIK
Take B7: the entries for the “EC50 (read off the curve)” value in [1] and in assay [2] were about 0.8 µg/mL and about 1 µg/mL, respectively. Further, the binding result in [3] and in [4] was “no binding (tested: about 20 µg/mL)” throughout.

One may read the EC50 (read off the curve) as the concentration giving half of the maximal effect.
